Reference: patent US20130109618

Experiments:
Tat-Cit49 (HIV-1?) [1] = assay: FP; settings: 50 mM Tris-HCl pH 7.4, 20 mM KCl, 0.02% Tween-20, room temperature
[2] = tested on: ArgTat (Tat(47-57), Tat-Arg) (HIV-1?); assay: FP; settings: apparent; 1:1 fit; 50 mM Tris-HCl pH 7.4, 20 mM KCl, 0.02% Tween-20, room temperature, 25 nM RNA
Tat-Cit56 (HIV-1?) [3] = assay: FP; settings: 50 mM Tris-HCl pH 7.4, 20 mM KCl, 0.02% Tween-20, room temperature
Tat-Cit52 (HIV-1?) [4] = assay: FP; settings: 50 mM Tris-HCl pH 7.4, 20 mM KCl, 0.02% Tween-20, room temperature
Tat-Cit57 (HIV-1?) [5] = assay: FP; settings: 50 mM Tris-HCl pH 7.4, 20 mM KCl, 0.02% Tween-20, room temperature
[6] = tested on: AgbTat (all six Arg replaced by Agb) (HIV-1?); assay: FP; settings: apparent; 1:1 fit; 50 mM Tris-HCl pH 7.4, 20 mM KCl, 0.02% Tween-20, room temperature
Tat-Cit55 (HIV-1?) [7] = assay: FP; settings: 50 mM Tris-HCl pH 7.4, 20 mM KCl, 0.02% Tween-20, room temperature
Tat-Cit53 (HIV-1?) [8] = assay: FP; settings: 50 mM Tris-HCl pH 7.4, 20 mM KCl, 0.02% Tween-20, room temperature
[9] = tested on: AghTat (all six Arg replaced by Agh) (HIV-1?); assay: FP; settings: apparent; 1:1 fit; 50 mM Tris-HCl pH 7.4, 20 mM KCl, 0.02% Tween-20, room temperature
[10] = tested on: Ac-Agp57-Tat(47-57)-NH2 (HIV-1?); assay: EMSA; settings: with 10 ug/mL poly(dI-dC); unit inferred, inferred nM from comparison with 67 ± 19
Tat-Cit49 (HIV-1?) [11] = assay: EMSA; settings: with 10 ug/mL poly(dI-dC), 25 C
[12] = tested on: ArgTat (Tat(47-57), Tat-Arg) (HIV-1?); assay: EMSA
Tat-Cit56 (HIV-1?) [13] = assay: EMSA; settings: with 10 ug/mL poly(dI-dC), 25 C
Tat-Cit52 (HIV-1?) [14] = assay: EMSA; settings: with 10 ug/mL poly(dI-dC), 25 C
Tat-Cit57 (HIV-1?) [15] = assay: EMSA; settings: with 10 ug/mL poly(dI-dC), 25 C
[16] = tested on: AgbTat (all six Arg replaced by Agb) (HIV-1?); assay: EMSA; settings: apparent; with 10 ug/mL poly(dI-dC); 50 mM Tris-HCl pH 7.4, 50 mM KCl
Tat-Cit55 (HIV-1?) [17] = assay: EMSA; settings: with 10 ug/mL poly(dI-dC), 25 C
Tat-Cit53 (HIV-1?) [18] = assay: EMSA; settings: with 10 ug/mL poly(dI-dC), 25 C
[19] = tested on: AghTat (all six Arg replaced by Agh) (HIV-1?); assay: EMSA; settings: apparent; with 10 ug/mL poly(dI-dC); 50 mM Tris-HCl pH 7.4, 50 mM KCl

Substance: HIV TAR RNA (F-TAR-RNA)
- Kd (Tat-Cit49 (HIV-1?) [1]): 94 nM
- Kd [2]: 25 nM
- Kd (Tat-Cit56 (HIV-1?) [3]): 55 nM
- Kd (Tat-Cit52 (HIV-1?) [4]): 116 nM
- Kd (Tat-Cit57 (HIV-1?) [5]): 49 nM
- Kd [6]: 32 nM
- Kd (Tat-Cit55 (HIV-1?) [7]): 99 nM
- Kd (Tat-Cit53 (HIV-1?) [8]): 102 nM
- Kd [9]: 36 nM
- Kd [10]: 56 nM
- Kd (Tat-Cit49 (HIV-1?) [11]): 138 nM
- Kd [12]: 67 nM
- Kd (Tat-Cit56 (HIV-1?) [13]): 164 nM
- Kd (Tat-Cit52 (HIV-1?) [14]): 235 nM
- Kd (Tat-Cit57 (HIV-1?) [15]): 146 nM
- Kd [16]: 31 nM
- Kd (Tat-Cit55 (HIV-1?) [17]): 279 nM
- Kd (Tat-Cit53 (HIV-1?) [18]): 344 nM
- Kd [19]: 450 nM
